Patent US20240025965A1 (UNIVERSITEIT TWENTE, published 2024)
Where no end group is shown, it is not given here.

Experiments:
[1] = biological target: T1, human recombinant receptor αvβ3 (human, UniProt P06756 31-992; P05106 27-718, limits assumed); test: microscale thermophoresis, 1 µM labelled peptide
T1 construct: also called irrelevant receptor of the integrin family
Description: (§1) Fluorescent labeled peptide (AV3-PEG(6)-5FAM or AXI-I-PEG(6)-FITC) (1 μM) was incubated with different concentrations of a human recombinant receptor (i.e., α5β1, α11β1 or αvβ3) for 10 minutes in Eppendorf tubes. The mixture of peptide and receptor was loaded in to NT.115™ hydrophilic glass capillaries. In order to find the best thermophoretic setting, the binding of peptide to the target receptor was examined at low (20%), middle (40%), and high (80%) MST power and all other binding experiments were performed using the same MST-settings. Finally, the dissociation constant (Kd) value was calculated from an average of three experiments.
(§2) Fluorescent labeled peptides (AV3-PEG(6)-5FAM and AXI-I-PEG(6)-FITC) were examined for their binding affinities against α5β1 and α11β1 receptors, respectively using microscale thermophoresis (MST). MST allows peptides to interact with the receptors in solution phase. These peptides were also exposed to an irrelevant receptor of the integrin family αvβ3 and MST analyses were performed.

rhIntegrin α11β1 = biological target: T2, rhIntegrin α11β1 (human, UniProt Q9UKX5 23-1141; P05556 21-728, limits assumed); test: microscale thermophoresis, 1 µM labelled peptide, receptor titrated, in solution
T2 construct: Bought from R&D Systems; also called α11β1 receptor; ITGA11 receptor
Description: as §1, §2

[2] = biological target: T3, α5β1 human recombinant protein (human, UniProt P08648 42-995; P05556 21-728); test: FITC-labelled peptide on coated α5β1 receptor in a 96-well plate, fluorescence intensity
T3 construct: Bought from R&D Systems; also called α5β1 receptor; integrin α5β1
Description: Purified ITGA11 receptor (α11β1; 100 μg/ml—stock; R&D systems) was diluted to 5 μg/ml with 1×PBS. 96-well ELISA White Maxisorb plate (Nunc) was coated with 50 μl of 5 μg/ml ITGA11 (or as control α5β1) receptor for overnight at 4° C. Then, wells were blocked for 3-4 hours with 200 μl of blocking buffer (1×PBS containing 5% BSA). Wells were washed three times with 200 μl of washing buffer (1×PBS containing 0.5% BSA and 0.05% TWEEN®-20). Peptides conjugated with FITC were diluted to different concentrations in washing buffer and then added to the plate and incubated at 37° C. for 1 hour. In addition, the binding of the peptide was blocked by co-incubation with 10× higher amount of unlabeled peptide. Subsequently, wells were washed three times with washing buffer. Then, 100 μl of 1×PBS was added and plates were read at 485 nm/520 nm with a fluorescence plate reader.

[3] = biological target: T4, ITGA11 on human stellate cells (LX2 hepatic stellate cells; primary pancreatic stellate cells) (human, UniProt Q9UKX5 23-1188); test: flow cytometry of AXI-I-PEG-FITC on suspended primary human pancreatic stellate cells, 1 hour at 4 °C
T4 construct: whole, on cells; For the pancreatic stellate cells the target is only implied; also called ITGA11-expressing hepatic stellate cells; ITGA11 expressing LX2 cells
T4 sequence (looked up): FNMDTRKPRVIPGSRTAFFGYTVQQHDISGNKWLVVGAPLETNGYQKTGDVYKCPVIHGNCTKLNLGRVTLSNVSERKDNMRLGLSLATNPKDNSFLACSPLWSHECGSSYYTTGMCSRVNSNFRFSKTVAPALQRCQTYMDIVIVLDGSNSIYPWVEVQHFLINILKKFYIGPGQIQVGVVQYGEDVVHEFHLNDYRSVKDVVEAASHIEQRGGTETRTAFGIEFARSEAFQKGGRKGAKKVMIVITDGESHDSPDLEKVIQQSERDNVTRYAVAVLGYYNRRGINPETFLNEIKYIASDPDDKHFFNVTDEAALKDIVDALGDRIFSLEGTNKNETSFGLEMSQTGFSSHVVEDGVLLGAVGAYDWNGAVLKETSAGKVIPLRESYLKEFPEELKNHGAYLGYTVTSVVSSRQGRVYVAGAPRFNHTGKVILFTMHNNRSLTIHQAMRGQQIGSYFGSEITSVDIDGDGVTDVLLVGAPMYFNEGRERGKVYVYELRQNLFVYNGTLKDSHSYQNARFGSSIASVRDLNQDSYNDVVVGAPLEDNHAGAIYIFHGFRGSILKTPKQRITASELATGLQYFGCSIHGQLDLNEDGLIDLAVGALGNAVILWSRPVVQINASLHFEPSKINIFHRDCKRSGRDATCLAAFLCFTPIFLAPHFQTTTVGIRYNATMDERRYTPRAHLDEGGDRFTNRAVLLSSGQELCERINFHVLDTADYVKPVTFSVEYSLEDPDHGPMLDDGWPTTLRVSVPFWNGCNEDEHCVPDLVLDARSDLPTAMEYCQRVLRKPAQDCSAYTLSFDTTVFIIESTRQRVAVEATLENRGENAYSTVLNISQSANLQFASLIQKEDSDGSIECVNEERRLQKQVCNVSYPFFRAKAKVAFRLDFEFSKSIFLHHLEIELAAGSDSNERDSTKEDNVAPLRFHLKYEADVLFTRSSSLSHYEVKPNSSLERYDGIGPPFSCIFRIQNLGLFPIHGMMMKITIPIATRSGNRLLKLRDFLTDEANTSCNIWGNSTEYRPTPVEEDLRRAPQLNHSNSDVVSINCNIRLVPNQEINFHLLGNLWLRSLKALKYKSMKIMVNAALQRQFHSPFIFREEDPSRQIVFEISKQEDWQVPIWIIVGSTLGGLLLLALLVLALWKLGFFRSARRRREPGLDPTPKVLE
Description: (§3) PSCs were trypsinized using trypsin-EDTA solution and cell numbers were diluted to 4×10⁴ cells/ml. Cells were incubated at 37° C. for 30 minutes to allow receptor recovery. Then different concentrations of AXI-I-FITC was added to the cells containing 2% FBS and incubated at 4° C. for 60 minutes. Thereafter, cells were centrifuged at 1500 rpm at 4° C. for 10 minutes. Supernatant was removed and cells were washed 3 times with PBS and then were fixed with 0.5% formaldehyde for 1 hour at 4° C. and measured with flow cytometry for fluorescence.
(§4) Different concentrations of AXI-I-PEG-FITC was incubated with suspended PSCs for 1 hour at 4° C., washed and fixed with 0.5% formaldehyde and measured with flow cytometry. […] The 50% of the total binding, i.e., dissociation constant (kd) value was approximately 1 uM. Since the peptide has been modified with PEG chain and a fluorophore, the binding affinity of the peptide may be reduced due to steric hindrance.

[4] = biological target: T4, ITGA11 on human stellate cells (LX2 …); test: flow cytometry on suspended primary human pancreatic stellate cells, 1 hour at 4° C.; whole-cell binding on suspended primary human pancreatic stellate cells, 1 hour at 4° C., flow cytometry; PEG- and FITC-modified peptide
Description: as §3, §4

T2 sequence (P05556 21-728 limits assumed, one chain of several): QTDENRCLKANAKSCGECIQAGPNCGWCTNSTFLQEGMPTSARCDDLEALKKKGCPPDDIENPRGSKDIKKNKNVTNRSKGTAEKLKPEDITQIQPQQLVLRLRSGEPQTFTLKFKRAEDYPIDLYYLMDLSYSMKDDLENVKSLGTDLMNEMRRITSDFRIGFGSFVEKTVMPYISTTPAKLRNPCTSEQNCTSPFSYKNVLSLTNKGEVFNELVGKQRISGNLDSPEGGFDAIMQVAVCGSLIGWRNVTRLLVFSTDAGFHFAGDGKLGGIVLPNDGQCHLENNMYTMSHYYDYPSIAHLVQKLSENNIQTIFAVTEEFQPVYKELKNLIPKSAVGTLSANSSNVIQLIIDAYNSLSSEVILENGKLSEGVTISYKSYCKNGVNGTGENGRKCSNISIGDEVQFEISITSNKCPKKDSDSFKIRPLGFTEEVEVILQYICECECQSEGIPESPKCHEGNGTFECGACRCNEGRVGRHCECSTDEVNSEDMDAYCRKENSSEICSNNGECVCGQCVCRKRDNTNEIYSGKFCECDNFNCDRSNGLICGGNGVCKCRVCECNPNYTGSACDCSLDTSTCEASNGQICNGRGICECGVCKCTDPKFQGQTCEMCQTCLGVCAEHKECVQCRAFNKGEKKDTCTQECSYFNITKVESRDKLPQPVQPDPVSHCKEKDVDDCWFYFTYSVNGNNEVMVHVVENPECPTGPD
T1 sequence (P06756 31-992 limits assumed, chain 1 of 2): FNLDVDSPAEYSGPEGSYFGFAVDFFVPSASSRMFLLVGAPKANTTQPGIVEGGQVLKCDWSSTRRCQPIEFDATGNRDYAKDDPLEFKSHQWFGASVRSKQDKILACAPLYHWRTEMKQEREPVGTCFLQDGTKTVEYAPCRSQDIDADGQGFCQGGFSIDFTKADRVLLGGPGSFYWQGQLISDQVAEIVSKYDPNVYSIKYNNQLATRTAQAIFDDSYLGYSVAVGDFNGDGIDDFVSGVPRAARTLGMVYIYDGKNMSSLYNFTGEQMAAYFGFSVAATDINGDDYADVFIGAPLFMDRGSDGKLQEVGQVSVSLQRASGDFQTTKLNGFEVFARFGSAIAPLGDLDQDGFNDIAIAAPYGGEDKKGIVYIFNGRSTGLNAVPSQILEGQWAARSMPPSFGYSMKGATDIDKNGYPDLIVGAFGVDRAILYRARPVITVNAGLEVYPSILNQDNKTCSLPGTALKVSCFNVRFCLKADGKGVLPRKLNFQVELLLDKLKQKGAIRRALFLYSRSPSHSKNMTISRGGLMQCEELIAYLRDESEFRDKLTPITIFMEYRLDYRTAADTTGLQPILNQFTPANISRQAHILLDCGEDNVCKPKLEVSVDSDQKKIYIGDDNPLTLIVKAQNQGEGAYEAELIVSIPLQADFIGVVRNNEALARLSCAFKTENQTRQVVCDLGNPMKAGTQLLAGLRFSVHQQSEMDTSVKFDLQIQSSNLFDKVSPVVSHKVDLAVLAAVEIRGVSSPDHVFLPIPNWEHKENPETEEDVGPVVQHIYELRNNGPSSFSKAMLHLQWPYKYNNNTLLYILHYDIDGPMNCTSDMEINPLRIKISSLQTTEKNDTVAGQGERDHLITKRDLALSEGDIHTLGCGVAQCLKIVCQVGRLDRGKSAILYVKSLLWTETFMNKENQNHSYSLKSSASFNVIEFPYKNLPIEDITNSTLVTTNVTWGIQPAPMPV
T1 sequence (P05106 27-718 limits assumed, chain 2 of 2): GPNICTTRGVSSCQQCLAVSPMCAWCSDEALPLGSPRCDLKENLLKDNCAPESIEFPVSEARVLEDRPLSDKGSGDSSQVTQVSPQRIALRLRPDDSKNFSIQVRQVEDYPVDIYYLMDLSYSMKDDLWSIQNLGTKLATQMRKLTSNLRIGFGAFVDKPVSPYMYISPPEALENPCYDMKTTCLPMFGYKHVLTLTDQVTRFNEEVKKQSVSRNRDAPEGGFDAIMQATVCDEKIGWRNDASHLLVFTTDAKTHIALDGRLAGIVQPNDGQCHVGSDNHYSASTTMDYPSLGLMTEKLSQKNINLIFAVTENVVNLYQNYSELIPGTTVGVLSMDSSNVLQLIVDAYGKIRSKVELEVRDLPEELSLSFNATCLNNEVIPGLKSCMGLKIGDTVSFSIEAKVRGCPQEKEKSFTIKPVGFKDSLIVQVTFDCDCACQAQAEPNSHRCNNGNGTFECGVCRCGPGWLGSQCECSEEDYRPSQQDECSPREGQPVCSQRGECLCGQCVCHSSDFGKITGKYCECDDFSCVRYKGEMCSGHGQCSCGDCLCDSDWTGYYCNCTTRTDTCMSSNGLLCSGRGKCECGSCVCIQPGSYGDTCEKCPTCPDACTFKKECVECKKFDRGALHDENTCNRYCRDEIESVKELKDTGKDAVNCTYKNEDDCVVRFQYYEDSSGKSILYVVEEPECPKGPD
T3 sequence (P08648 42-995 limits assumed, chain 1 of 2): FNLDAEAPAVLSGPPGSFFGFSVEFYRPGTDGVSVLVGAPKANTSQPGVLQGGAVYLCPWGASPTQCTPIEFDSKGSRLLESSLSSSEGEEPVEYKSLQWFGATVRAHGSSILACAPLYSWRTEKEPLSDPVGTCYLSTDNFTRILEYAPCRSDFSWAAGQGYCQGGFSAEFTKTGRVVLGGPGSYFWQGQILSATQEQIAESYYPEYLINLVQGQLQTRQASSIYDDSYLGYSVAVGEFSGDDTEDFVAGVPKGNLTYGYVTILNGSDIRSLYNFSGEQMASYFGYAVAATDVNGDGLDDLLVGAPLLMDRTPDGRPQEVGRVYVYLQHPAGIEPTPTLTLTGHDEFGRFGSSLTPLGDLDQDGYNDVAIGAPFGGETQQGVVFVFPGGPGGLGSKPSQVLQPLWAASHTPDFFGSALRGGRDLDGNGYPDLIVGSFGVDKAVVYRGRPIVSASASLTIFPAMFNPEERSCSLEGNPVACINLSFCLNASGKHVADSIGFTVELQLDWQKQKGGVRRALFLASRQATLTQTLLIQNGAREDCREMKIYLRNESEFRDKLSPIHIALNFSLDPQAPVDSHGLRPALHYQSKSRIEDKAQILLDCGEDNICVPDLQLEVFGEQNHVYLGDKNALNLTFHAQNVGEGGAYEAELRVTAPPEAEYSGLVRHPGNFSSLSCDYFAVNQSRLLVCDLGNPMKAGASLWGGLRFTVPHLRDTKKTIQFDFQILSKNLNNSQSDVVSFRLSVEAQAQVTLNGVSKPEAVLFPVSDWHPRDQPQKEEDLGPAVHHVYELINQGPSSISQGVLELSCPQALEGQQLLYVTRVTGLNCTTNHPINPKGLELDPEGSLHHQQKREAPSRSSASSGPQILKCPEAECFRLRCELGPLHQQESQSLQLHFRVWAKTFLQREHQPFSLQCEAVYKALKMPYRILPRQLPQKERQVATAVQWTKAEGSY
T3 sequence (P05556 21-728 limits assumed, chain 2 of 2): as the sequence (P05556 21-728 limits assumed, one chain of several) above

## SGLTEWLRWFNS (also: PEG(6)-FITC conjugated, site not given here, also called AXI-I-PEG-FITC; AXI-I-FITC) [AXI-I-PEG(6)-FITC]
[1]
  binding result: no binding
rhIntegrin α11β1
  Kd: 149 nM
[2]
  binding result: no binding (tested: 1.0 µM)
[3]
  EC50 (read off the curve): ~1000 nM
[4]
  Kd: ~1000 nM
